As usually defined, the koff is the first-order rate constant of dissociation. A higher koff goes with fast dissociation.

This assay has as its target Biotinylated D/NP_(TAIL) fused to a biotinylation motif (Influenza D virus, strain …, UniProt A0A0E3VZU8 505-552). The assay can be described thus: SPR. (SPR reads the build-up and loss of mass on a sensor chip optically.)

B1: human importin-α7 without its IBB domain (amino-acids 58 to 536) (domain or fragment)
chain: not shown
Molecule B1 came in with a koff of 0.09 s⁻¹.

Source of the values: PMC6346101 (2019).
